In paper doi:10.1101/2022.04.02.486817 (bioRxiv, 2022) one finds Kd data, which are given here for four molecules.

One experiment deals with AP2 α-appendage (UniProt P17427 702-938). Briefly: ITC. On the technique in general: Isothermal titration calorimetry measures the heat released or taken up as one component is titrated into another.
A further experiment concerns the target recombinant AP2 core (UniProt P18484 1-621; P63010 1-591; P84092 1-435; P62743 1-142). Briefly: BLI. Background: BLI is a label-free optical method that tracks binding on a fibre tip over time.
In the next experiment the target is T1, Cμ2 (UniProt P84092 158-435).
T1 sequence (looked up): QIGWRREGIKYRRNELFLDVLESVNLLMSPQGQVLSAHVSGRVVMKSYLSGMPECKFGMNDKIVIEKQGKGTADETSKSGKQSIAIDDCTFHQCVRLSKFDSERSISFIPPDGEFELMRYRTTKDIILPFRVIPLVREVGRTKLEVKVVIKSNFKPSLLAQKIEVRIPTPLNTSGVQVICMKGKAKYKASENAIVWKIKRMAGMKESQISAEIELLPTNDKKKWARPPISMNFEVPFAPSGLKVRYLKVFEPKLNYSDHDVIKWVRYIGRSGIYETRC
Briefly: ITC.

Chain of AP2 α-appendage (P17427 702-938): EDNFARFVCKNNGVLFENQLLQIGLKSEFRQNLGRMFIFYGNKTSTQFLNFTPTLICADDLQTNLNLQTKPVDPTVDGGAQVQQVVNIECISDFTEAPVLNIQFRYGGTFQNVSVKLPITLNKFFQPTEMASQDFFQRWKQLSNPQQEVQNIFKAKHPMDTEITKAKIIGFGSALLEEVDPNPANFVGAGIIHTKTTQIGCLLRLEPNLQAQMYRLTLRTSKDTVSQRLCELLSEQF

The term Kd denotes the concentration at which binding is half-saturated. On to SEEQVSKNLFGPPLESAFDHEH [FCHO1 C peptide (residues 426-448 SEEQVSKNLFGPPLESAFDHEH)], for which the Kd in the experiment with AP2 α-appendage is around 50 µM.

B1: FCHO1 linker (residues 316-444) (domain or fragment)
chain: TCPEVDEEGFTVRPDVTQNSTAEPSRFSSSDSDFDDEEPRKFYVHIKPAPARAPACSPEAAAAQLRATAGSLILPPGPGGTMKRHSSRDAAGKPQRPRSAPRTSSCAERLQSEEQVSKNLFGPPLESAF
Take B1: in the experiment with recombinant AP2 core, the Kd is 8.5 ± 2.2 µM.

In the experiment with Cμ2, NIPDVDEEGYSIKPETNQNDTKENHFYSSSDSDSEDEEPKKYRI (domain or fragment, human, UniProt Q0JRZ9 314-357, looked up) [FCHO2N1+N2] registered a Kd of around 25 µM.

B2: FCHO2 linker (residues 314-444) (domain or fragment)
chain: NIPDVDEEGYSIKPETNQNDTKENHFYSSSDSDSEDEEPKKYRIEIKPMHPNNSHHTMASLDELKVSIGNITLSPAISRHSPVQMNRNLSNEELTKSKPSAPPNEKGTSDLLAWDPLFGPSLDSSSSSSLT
Regarding B2, in the experiment with recombinant AP2 core, the Kd is 9.8 ± 1.5 µM.
